The data set deals with Casp-Cas9 (Aciduliprofundum boonei T469 / …, UniProt B5IAF4 1-404+=GGSGGSGGSGGSGGSGGSGGSGGS+Q99ZW2:1-1368, internal_change). Nature of the data set: R-loop formation gel assay (deproteinised); sgran50; 5 mM EDTA; 25 mM Tris pH 7.5, 106 mM KCl, 50 ug/ml BSA, 5 mM EDTA, 2 mM DTT, 9% glycerol, 37 C; 150 nM protein, 300 nM sgRNA, 25 nM Cy5-dsran50, 75 nM unlabelled MW12 dsDNA competitor; 8% acrylamide TBE gel. The settings on record: protein: recombinant, tags: His6, label: 5'-Cy5 on ssran50 strand (strand 2), blunt 50 bp DNA target plus sgRNA, PAM TGG.

B1: sgran50 + dsran50 (mixed)
RNA: GGUAGACGAUUACAUUGCUACAGUUUUAGAGCUAGAAAUAGCAAGUUAAAAUAAGGCUAGUCCGUUAUCAACUUGAAAAAGUGGCACCGAGUCGGUGCUU
DNA 1: CAACGTCATAGACGATTACATTGCTACATGGAGCTGTCTAGAGGATCCGA
DNA 2: TCGGATCCTCTAGACAGCTCCATGTAGCAATGTAATCGTCTATGACGTTG
On to B1, for which the binding result is reported as “binds”.
